In patent US20110038790A1:

Key:
[1] = molecular target: mAbs 2A4, 8G9 and 7D8, told of as a group; experiment: competition ELISA, told for the three mAbs together
[2] = molecular target: mAbs 2A4, 8G9 and 7D8, told of as a group; experiment: competition ELISA, value told for the three mAbs together

Binder | fold greater IC50 than murine AEF in solution [1] [fold] | IC50 [2] [µg/mL]
human AA amyloid (renal AA amyloid extract or tissue deposits) (protein, UniProt P0DJI8 19-94, looked up) RSFFSFLGEAFDGARDMWRAYSDMREANYIGSDKYFHARGNYDAAKRGPGGAWAAEVITDARENIQRFFGHGAEDS | 6 to 44 | 
murine AA amyloid (AA fibrils, amyloid enhancing factor extract or tissue deposits) (protein, mouse, UniProt P05367 20-94, looked up) GFFSFIGEAFQGAGDMWRAYTDMKEAGWKDGDKYFHARGNYDAAQRGPGGVWAAEKISDARESFQEFFGRGHEDT |  | 20
